Experimental findings from patent US20180085455A1 (ISU ABXIS, published 2018) are described below.

The chains are these.
B1: 472S1 (antibody, V domains shown)
VH: EVQLLESGGGLVQPGGSLRLSCAASGFTFSWYDMTWVRQAPGKGLEWVSGISYDGGNTYYADSVKGRFTISRDNSKNTLYLQMNSLRAEDTAVYYCARDPSWCLQDLCYYADGMDVWGQGTLVTVSS
VL: QSVLTQPPSASGTPGQRVTISCSGSSSNIGSNSVSWYQQLPGTAPKLLIYADSNRPSGVPDRFSGSKSGTSASLAISGLRSEDEADYYCGSWDYSLSGYVFGGGTKLTVLG
notes: IgG1 (Selexis 085 vector, CHO)
B2: 451P (antibody, V domains shown)
VH: EVQLLESGGGLVQPGGSLRLSCAASGFTFSDYDMSWVRQAPGKGLEWVSAIYYDSGSIYYADSAKGRFTISRDNSKNTLYLQMNSLRAEDTAVYYCAKDRLFVSDSTFDYWGQGTLVTVSS
VL: QSVLTQPPSASGTPGQRVTISCSGSPSNIGNNSVTWYQQLPGTAPKLLIYYDSHRPSGVPDRFSGSKSGTSASLAISGLRSEDEADYYCGSWDASLNGYVFGGGTKLTVLG
notes: IgG1 (Selexis 085 vector, CHO); also called anti-ErbB3 lead antibody 451P
B3: 442S9 (antibody, V domains shown)
VH: EVQLLESGGGLVQPGGSLRLSCAASGFTFSDYDMSWVRQAPGKGLEWVSSIYPDSGSTYYADSVQGRFTISRDNSKNTLYLQMNSLRAEDTAVYYCAKDRHMWPEGPFDYWGQGTLVTVSS
VL: QSVLTQPPSASGTPGQRVTISCSGSSSNIGSNSGSWYQQLPGTAPKLLIYADNHRPSGVPDRFSGSKSGTSASLAISGLRSEDEADYYCAAWDSSLSGYVFGGGTKLTVLG
notes: as for B1
B4: 451M1 (antibody, V domains shown)
VH: EVQLLESGGGLVQPGGSLRLSCAASGFTFSDYDMSWVRQAPGKGLEWVSAIYYDSGSIYYADSAKGRFTISRDNSKNTLYLQMNSLRAEDTAVYYCAKDRLFMSDSTFDYWGQGTLVTVSS
VL: QSVLTQPPSASGTPGQRVTISCSGSPSNIGNNSVTWYQQLPGTAPKLLIYYDSHRPSGVPDRFSGSKSGTSASLAISGLRSEDEADYYCGSWDASLNGYVFGGGTKLTVLG
notes: as for B1
B5: 442S4 (antibody, V domains shown)
VH: EVQLLESGGGLVQPGGSLRLSCAASGFTFSDYDMSWVRQAPGKGLEWVSSIEPDFGSSYYADSVRGRFTISRDNSKNTLYLQMNSLRAEDTAVYYCAKDLHMGPEGPFDYWGQGTLVTVSS
VL: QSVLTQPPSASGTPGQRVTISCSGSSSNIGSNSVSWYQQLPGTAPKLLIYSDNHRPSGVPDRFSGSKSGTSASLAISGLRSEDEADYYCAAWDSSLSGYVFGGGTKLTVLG
notes: as for B1
B6: 442M7 (antibody, V domains shown)
VH: EVQLLESGGGLVQPGGSLRLSCAASGFTFSDYDMSWVRQAPGKGLEWVSTIEPDSGSTYYADSVQSRFTISRDNSKNTLYLQMNSLRAEDTAVYYCAKDLHMGPEGPFDYWGQGTLVTVSS
VL: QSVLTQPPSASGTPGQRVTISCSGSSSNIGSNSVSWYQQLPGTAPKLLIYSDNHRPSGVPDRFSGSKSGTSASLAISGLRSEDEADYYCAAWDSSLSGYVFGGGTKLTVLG
notes: as for B1
B7: 451M2 (antibody, V domains shown)
VH: EVQLLESGGGLVQPGGSLRLSCAASGFTFSDYDMSWVRQAPGKGLEWVSAIYYDSGSIYYADSAKGRFTISRDNSKNTLYLQMNSLRAEDTAVYYCAKDRLFASDSTFDYWGQGTLVTVSS
VL: QSVLTQPPSASGTPGQRVTISCSGSPSNIGNNSVTWYQQLPGTAPKLLIYYDSHRPSGVPDRFSGSKSGTSASLAISGLRSEDEADYYCGSWDASLNGYVFGGGTKLTVLG
notes: as for B1
B8: 442S10 (antibody, V domains shown)
VH: EVQLLESGGGLVQPGGSLRLSCAASGFTFSDYDMSWVRQAPGKGLEWVSSIYPDSGSTYYADSVQGRFTISRDNSKNTLYLQMNSLRAEDTAVYYCAKDRHMWPEGPFDYWGQGTLVTVSS
VL: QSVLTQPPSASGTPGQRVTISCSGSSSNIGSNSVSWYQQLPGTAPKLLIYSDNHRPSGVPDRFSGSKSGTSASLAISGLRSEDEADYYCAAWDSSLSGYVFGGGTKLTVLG
notes: as for B1
B9: 442M11 (antibody, V domains shown)
VH: EVQLLESGGGLVQPGGSLRLSCAASGFTFSDYDMSWVRQAPGKGLEWVSTIEPDYGSTLYADSVQGRFTISRDNSKNTLYLQMNSLRAEDTAVYYCAKDLHMGPEGPFDYWGQGTLVTVSS
VL: QSVLTQPPSASGTPGQRVTISCSGSSSNIGSNSVSWYQQLPGTAPKLLIYSDNHRPSGVPDRFSGSKSGTSASLAISGLRSEDEADYYCHAWDSSLSGDFFGGGTKLTVLG
notes: as for B1
B10: 442M8 (antibody, V domains shown)
VH: EVQLLESGGGLVQPGGSLRLSCAASGFTFSDYDMSWVRQAPGKGLEWVSSIYPDSGSTYYADSVQGRFTISRDNSKNTLYLQMNSLRAEDTAVYYCAKDLHMGPEGPFDYWGQGTLVTVSS
VL: QSVLTQPPSASGTPGQRVTISCSGSSSNIGSNSVSWYQQLPGTAPKLLIYSDNHRPSGVPDRFSGSKSGTSASLAISGLRSEDEADYYCHAWDSSLYVDVFGGGTKLTVLG
notes: as for B1
B11: 442M5 (antibody, V domains shown)
VH: EVQLLESGGGLVQPGGSLRLSCAASGFTFSDYDMSWVRQAPGKGLEWVSTIDLDSGSIYYADSVQGRFTISRDNSKNTLYLQMNSLRAEDTAVYYCAKDLHMGPEGPFDYWGQGTLVTVSS
VL: QSVLTQPPSASGTPGQRVTISCSGSSSNIGSNSVSWYQQLPGTAPKLLIYSDNHRPSGVPDRFSGSKSGTSASLAISGLRSEDEADYYCHAWDSSLWGDVFGGGTKLTVLG
notes: as for B1
B12: 442M4 (antibody, V domains shown)
VH: EVQLLESGGGLVQPGGSLRLSCAASGFTFSDYDMSWVRQAPGKGLEWVSTIDLDSGSIYYADSVQGRFTISRDNSKNTLYLQMNSLRAEDTAVYYCAKDLHMGPEGPFDYWGQGTLVTVSS
VL: QSVLTQPPSASGTPGQRVTISCSGSSSNIGSNSVSWYQQLPGTAPKLLIYSDNHRPSGVPDRFSGSKSGTSASLAISGLRSEDEADYYCVGWDSSLYGHVFGGGTKLTVLG
notes: as for B1
B13: 442M3 (antibody, V domains shown)
VH: EVQLLESGGGLVQPGGSLRLSCAASGFTFSDYDMSWVRQAPGKGLEWVSSIYPDSGSTYYADSVQGRFTISRDNSKNTLYLQMNSLRAEDTAVYYCAKDRHMWPEGPFDYWGQGTLVTVSS
VL: QSVLTQPPSASGTPGQRVTISCSGSSSNIGSNSGSWYQQLPGTAPKLLIYADNWRPSGVPDRFSGSKSGTSASLAISGLRSEDEADYYCAAWDSSLSGYVFGGGTKLTVLG
notes: as for B1
B14: 472S3 (antibody, V domains shown)
VH: EVQLLESGGGLVQPGGSLRLSCAASGFTFSWYDMSWVRQAPGKGLEWVSGISYDGGNTYYADSVKGRFTISRDNSKNTLYLQMNSLRAEDTAVYYCARDPSWCLQDLCYYADGMDVWGQGTLVTVSS
VL: QSVLTQPPSASGTPGQRVTISCSGSSSNIGSNSVSWYQQLPGTAPKLLIYADSNRPSGVPDRFSGSKSGTSASLAISGLRSEDEADYYCGSWDYSLSGYVFGGGTKLTVLG
notes: as for B1
B15: 442S2 (antibody, V domains shown)
VH: EVQLLESGGGLVQPGGSLRLSCAASGFTFSDYDMSWVRQAPGKGLEWVSSIYPDSGSTDYADSVQGRFTISRDNSKNTLYLQMNSLRAEDTAVYYCAKDLHMGPEGPFDYWGQGTLVTVSS
VL: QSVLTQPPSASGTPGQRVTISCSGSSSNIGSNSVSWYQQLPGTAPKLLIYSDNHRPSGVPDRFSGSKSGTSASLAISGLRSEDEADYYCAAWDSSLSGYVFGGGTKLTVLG
notes: as for B1
B16: 442M10 (antibody, V domains shown)
VH: EVQLLESGGGLVQPGGSLRLSCAASGFTFSDYDMSWVRQAPGKGLEWVSSIYPDSGSTDYADSVQGRFTISRDNSKNTLYLQMNSLRAEDTAVYYCAKDLHMWPEGPFDYWGQGTLVTVSS
VL: QSVLTQPPSASGTPGQRVTISCSGSSSNIGSNSVSWYQQLPGTAPKLLIYADNFRPSGVPDRFSGSKSGTSASLAISGLRSEDEADYYCAAWDSSLSGYVFGGGTKLTVLG
notes: as for B1
B17: 472S4 (antibody, V domains shown)
VH: EVQLLESGGGLVQPGGSLRLSCAASGFTFSWYDIAWVRQAPGKGLEWVSGISYDGGNTYYADSVKGRFTISRDNSKNTLYLQMNSLRAEDTAVYYCARDPSWCLQDLCYYADGMDVWGQGTLVTVSS
VL: QSVLTQPPSASGTPGQRVTISCSGSSSNIGSNSVSWYQQLPGTAPKLLIYADSNRPSGVPDRFSGSKSGTSASLAISGLRSEDEADYYCGSWDYSLSGYVFGGGTKLTVLG
notes: as for B1
B18: 442S6 (antibody, V domains shown)
VH: EVQLLESGGGLVQPGGSLRLSCAASGFTFSDYDMSWVRQAPGKGLEWVSSIYPDSGSTDYADSVQGRFTISRDNSKNTLYLQMNSLRAEDTAVYYCAKDRHMWPEGPFDYWGQGTLVTVSS
VL: QSVLTQPPSASGTPGQRVTISCSGSSSNIGSNSGSWYQQLPGTAPKLLIYADNWRPSGVPDRFSGSKSGTSASLAISGLRSEDEADYYCAAWDSSLSGYVFGGGTKLTVLG
notes: as for B1

This assay deals with T1, recombinant human ErbB3 protein (R&D systems) (human, UniProt P21860 20-643).
T1 construct: Bought recombinant protein; also called HER3
Description: BLI (Octet QK384), human ErbB3 immobilized on AR2G sensor, IgG at 12.5-50 nM. The procedure:
After activation of carboxyl groups in 20 mM of 1-ethyl-3-(3-dimethylaminopropyl)carbodiimide hydrochloride (EDC) and 40 mM of N-hydroxysulfosuccinimide (sulfo-NHS) solution on an AR2G sensor (ForteBio), 10 μg/mL of human ErbB3 protein solution diluted with 10 mM of sodium acetate (pH 4.0) (ForteBio) was added to immobilize human ErbB3 protein onto the AR2G sensor. The AR2G sensor to which the human ErbB3 protein was immobilized and was treated with 1 M of ethanolamine (ForteBio) to inactivate the remaining unreacted carboxyl groups.
For the molecule B1, the Kd – broadly, the concentration at which binding is half-saturated – is less than 0.001 nM; the off-rate (koff) (as a rule, the first-order rate constant of dissociation) is 3.33e-07 s⁻¹; the on-rate (kon) (as a rule, the second-order rate constant of association) came out at 649000 M⁻¹ s⁻¹.

As to B2, the Kd turned out to be 0.0535 nM, the off-rate constant (koff) came to 6.33e-05 s⁻¹ and the on-rate constant (kon) is 1.18e+06 M⁻¹ s⁻¹.

For B3, the dissociation constant Kd came out at 0.0716 nM, the koff came out at 5.87e-05 s⁻¹ and the kon was 821000 M⁻¹ s⁻¹.

On to B4, for which the dissociation constant (Kd) is 0.0248 nM, the koff was 3.08e-05 s⁻¹ and the kon was found to be 1.24e+06 M⁻¹ s⁻¹.

B5: the dissociation constant Kd worked out at 0.0371 nM, the koff came out at 5.47e-05 s⁻¹ and the kon was 1.48e+06 M⁻¹ s⁻¹.

Take B6: the Kd worked out at 0.0291 nM, the koff was determined as 4.55e-05 s⁻¹ and the kon amounted to 1.56e+06 M⁻¹ s⁻¹.

B7: the equilibrium dissociation constant (Kd) was found to be 0.0126 nM, the koff was found to be 1.56e-05 s⁻¹ and the on-rate (kon) came to 1.24e+06 M⁻¹ s⁻¹.

Turning to B8, the Kd is 0.114 nM, the dissociation rate constant (koff) is 9.29e-05 s⁻¹ and the association rate constant (kon) is 814000 M⁻¹ s⁻¹.

For B9, the Kd was 0.00543 nM, the dissociation rate constant (koff) came out at 8.09e-06 s⁻¹ and the kon was determined as 1.49e+06 M⁻¹ s⁻¹.

B10: the equilibrium dissociation constant (Kd) was determined as 0.00256 nM, the off-rate (koff) is 2.23e-06 s⁻¹ and the kon was found to be 870000 M⁻¹ s⁻¹.

As to B11, the Kd is less than 0.001 nM, the koff is less than 1e-07 s⁻¹ and the kon came out at 665000 M⁻¹ s⁻¹.

Consider B12, for which the dissociation constant (Kd) is less than 0.001 nM, the off-rate (koff) is less than 1e-07 s⁻¹ and the kon came out at 573000 M⁻¹ s⁻¹.

Take B13: the dissociation constant (Kd) came out at 0.0034 nM, the koff came out at 2.62e-06 s⁻¹ and the kon worked out at 771000 M⁻¹ s⁻¹.

As to B14, the dissociation constant Kd was less than 0.001 nM, the koff came out at 1.43e-07 s⁻¹ and the on-rate constant (kon) was found to be 522000 M⁻¹ s⁻¹.

On to B15, for which the dissociation constant (Kd) is 0.0711 nM, the koff came to 8.28e-05 s⁻¹ and the kon is 1.17e+06 M⁻¹ s⁻¹.

Consider B16, for which the equilibrium dissociation constant (Kd) was less than 0.001 nM, the koff was less than 1e-07 s⁻¹ and the kon came out at 471000 M⁻¹ s⁻¹.

On to B17, for which the Kd is 0.00941 nM, the dissociation rate constant (koff) was 1.09e-05 s⁻¹ and the kon is 1.15e+06 M⁻¹ s⁻¹.

With B18, the Kd was less than 0.001 nM, the off-rate (koff) was less than 1e-07 s⁻¹ and the kon is 872000 M⁻¹ s⁻¹.
